For 1 molecule, Kd results are on record in US20220356266A1.

As a reminder, the Kd is the free concentration of one partner at which half of the binding sites on the other are occupied at equilibrium, for simple one-to-one binding.

This assay addresses soluble full length KLK2 protein (human kallikrein-2 6-His protein) (human) (UniProt P20151). Briefly: SPR; antibody captured on a chip coated with anti-Fc antibody, soluble hK2 injected, 1:1 Langmuir fit. On the technique in general: Surface plasmon resonance follows binding to a sensor surface in real time, without labels.

B1: KL2B30 Fab (KLCB80) (Fab, V domains shown)
VH: QVQLQESGPGLVKPSETLSLTCTVSGGSISSYYWSWIRQPPGKGLEWIGYIYYSGSTNYNPSLKSRVTISVDTSKNQFSLKLSSVTAADTAVYYCAGTTIFGVVTPNFYYGMDVWGQGTTVTVSS
VL: DIQMTQSPSFLSASVGDRVTITCRASQGISSYLAWYQQKPGKAPKFLIYAASTLQSGVPSRFSGSGSGTEFTLTISSLQPEDFATYYCQQLNSYPLTFGGGTKVEIKR
B1 yielded a Kd of 0.46 nM.
